Data set [1] concerns mouse B cells stimulated to produce IgA. The experiment in a line: IgA production by cultured, stimulated mouse splenic B cells (ELISA of supernatants, flow cytometry). The following applies: FIG. 8, C57BL6 spleen B cells cultured 5 days with stimuli and a percentage of supernatant, vs Control SN. The class given is cell-based. The text has this: A polypeptide of the present invention having immunoregulatory activity inhibits IgA production by B cells in vitro. Whether a polypeptide has immuno-modulatory activity may be determined by in vitro assays. An example of an in vitro assay is described in Example 1. The assay uses B cells, which in one embodiment may be a primary cell obtained from an animal, such as a mouse or human, or in another embodiment may be a B cell line. When obtained from an animal, B cells may be obtained from lymphoid tissues such as spleen, tonsil, and lymph node. […]
Single cell suspensions were generated from the indicated tissues and were pre-incubated with hybridoma supernatant containing Fc receptor blocking antibody. […] Data were analyzed using FlowJo software (TreeStar).
Serum, saliva and bronchoalveolar lavage fluid were collected from 10-14 week old FDC-SP-deficient mice, FDC-SP transgenic mice and strain, age and sex-matched controls. […] Total antibodies levels were determined by coating with anti-mouse IgM or IgA (Jackson ImmunoResearch Laboratories) and NP-specific antibodies levels were determined by coating plates with NP20-BSA (Biosearch Technologies). […]
A general note: In an ELISA, binding on a coated surface is turned into a signal by an enzyme label.

Data set [2] can be described thus: Toxicity observation in FDC-SP transgenic mice. The following applies: transgenic mice expressing increased levels of FDC-SP polypeptide. It is filed as in vivo. An excerpt:
FDC-SP transgenic CD1 mice (i.e., mice constitutively expressing FDC-SP in lymphoid tissues) were generated as described (Al-Alwan et al., 2007, J. Immunol., 178:7859-7867). All experimental animals were housed at the Central Animal Care Facility (University of Manitoba, Winnipeg, MB) in compliance with the guidelines established by the Canadian Council on Animal Care.

The next data set concerns B lymphoma cells. To be noted: secreted FDC-SP; cited from earlier work.
Another data set concerns T lymphoma cells. To be noted: secreted FDC-SP; cited from earlier work.

B1: FDC-SP SN: supernatant of L cells transfected with FDC-SP expression vector, containing recombinant FDC-SP (protein, UniProt Q8NFU4 18-85, looked up)
Follicular dendritic cell …: FPVSQDQEREKRSISDSDELASGFFVFPYPYPFRPLPPIPFPRFPWFRRNFPIPIPESAPTTPLPSEK
modifications: in L cell culture supernatant
As for B1, the “IgA production in vitro” value in data set [1] is “suppressed”.

B2: FDC-SP: secreted immuno-modulatory polypeptide expressed by activated follicular dendritic cells (protein, UniProt Q8NFU4 18-85, looked up)
Follicular dendritic cell …: B1 Follicular dendritic cell …
Take B2: the “toxicity associated with the polypeptide” value in data set [2] is listed as “no evidence of toxicity”. The “binding to the surface of B lymphoma cells” value with B lymphoma cells was “can bind”. For the same molecule, in the data set with T lymphoma cells, the “binding to the surface of T lymphoma cells” value is given as “not”.
